These results are taken from patent publication US20160159910A1 (Genentech, published 2016).

For orientation: Kd means the concentration at which binding is half-saturated. In general, EC50 refers to the concentration at which the effect is half-maximal.

The target in assay [1] is T1, human B7-H4 (human, UniProt Q7Z7D3 29-282).
T1 construct: On stably transfected 293 cells (recombinant) or on MX-1 / SKBR3 tumor cells (endogenous); the cell is named under assay; also called huB7-H4; hB7-H4
T1 sequence: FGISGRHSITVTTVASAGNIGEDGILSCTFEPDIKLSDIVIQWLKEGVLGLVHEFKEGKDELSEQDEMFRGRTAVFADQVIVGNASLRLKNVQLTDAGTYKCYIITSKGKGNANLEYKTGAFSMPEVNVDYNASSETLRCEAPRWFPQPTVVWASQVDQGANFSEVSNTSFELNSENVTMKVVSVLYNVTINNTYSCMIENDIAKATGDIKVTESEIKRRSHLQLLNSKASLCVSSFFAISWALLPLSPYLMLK
The assay can be described thus: Scatchard analysis, radioligand cell binding on MX-1 cells (endogenous human B7-H4). As for the experimental part: Competition assay mixtures of 50 μL volume containing a fixed concentration of [I¹²⁵] labeled antibody and decreasing concentrations of serially diluted, unlabeled antibody were placed into 96-well plates. […] Cells were detached from the flask using Sigma Cell Dissociation Solution and were washed with binding buffer, which consisted of Dulbecco's Modified Eagle Medium (DMEM) with 1% bovine serum albumin (BSA), 300 mM human IgG and 0.1% sodium azide. The washed cells were added to the 96 well plates at a density of 100,000 cells in 0.2 mL of binding buffer. The final concentration of the [I¹²⁵] labeled antibody in each well was ˜250 pM. The final concentration of the unlabeled antibody in the competition assay ranged from 1000 nM through ten 2-fold dilution steps to a 0 nM buffer-only assay. Competition assays were carried out in triplicate. Competition assays were incubated for 2 hours at room temperature. […] The filters were counted on a Wallac Wizard 1470 gamma counter (PerkinElmer Life and Analytical Sciences Inc.; Wellesley, Mass.). The binding data was evaluated using NewLigand software (Genentech), which uses the fitting algorithm of Munson and Robard to determine the binding affinity of the antibody (Munson and Robard 1980).

Assay [2] deals with T2, B7-H4 (IgV; G28-F150 including spacer S151-V157)-irrelevant (Ig-C) chimeric membrane protein (construct-88) (human, UniProt Q7Z7D3 28-157).
T2 construct: also called B7-H4 (Ig-V):MolX (Ig-C, TM, CD); Ig-chimera expressing the B7-H4 Ig-V domain; not shown: Ig-C, transmembrane and cytoplasmic parts of the unnamed irrelevant protein (MolX) that display the domain on the cell; N-terminal Herpes-gD tag
T2 sequence: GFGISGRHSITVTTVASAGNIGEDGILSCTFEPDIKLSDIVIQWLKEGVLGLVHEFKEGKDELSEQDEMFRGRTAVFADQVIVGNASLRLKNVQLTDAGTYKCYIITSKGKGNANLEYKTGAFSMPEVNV
Kind of assay: FACS on 293 cells expressing the Ig-chimera with the B7-H4 Ig-V domain. An excerpt:
Briefly, 293 cells were transiently transfected with constructs 88 & 88B using polyfect.

Assay [3] addresses T3, mouse B7-H4 (mouse, UniProt Q7TSP5 29-283).
T3 construct: On stably transfected 293 cells; also called muB7-H4; recombinant mouse B7-H4
T3 sequence: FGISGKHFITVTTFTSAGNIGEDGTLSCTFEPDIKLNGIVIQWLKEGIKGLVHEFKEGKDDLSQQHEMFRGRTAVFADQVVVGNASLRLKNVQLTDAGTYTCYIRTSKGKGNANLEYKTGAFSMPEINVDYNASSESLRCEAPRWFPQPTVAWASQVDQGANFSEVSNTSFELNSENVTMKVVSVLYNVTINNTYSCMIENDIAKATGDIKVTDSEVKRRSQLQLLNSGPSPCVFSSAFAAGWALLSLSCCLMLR
The assay can be described thus: Scatchard analysis, radioligand cell binding on 293 cells expressing recombinant B7-H4. How it is done: (§1) Competition assay mixtures of 50 μL volume containing a fixed concentration of [I¹²⁵] labeled antibody and decreasing concentrations of serially diluted, unlabeled antibody were placed into 96-well plates. […] Cells were detached from the flask using Sigma Cell Dissociation Solution and were washed with binding buffer, which consisted of Dulbecco's Modified Eagle Medium (DMEM) with 1% bovine serum albumin (BSA), […] and 0.1% sodium azide. The washed cells were added to the 96 well plates at a density of 100,000 cells in 0.2 mL of binding buffer. The final concentration of the [I¹²⁵] labeled antibody in each well was ˜250 pM. The final concentration of the unlabeled antibody in the competition assay ranged from 1000 nM through ten 2-fold dilution steps to a 0 nM buffer-only assay. Competition assays were carried out in triplicate. Competition assays were incubated for 2 hours at room temperature. After the 2-hour incubation, the competition assays were transferred to a Millipore Multiscreen filter plate (Billerica, Mass.) and washed 4 times with binding buffer to separate the free from bound [I¹²⁵] labeled antibody. The filters were counted on a Wallac Wizard 1470 gamma counter (PerkinElmer Life and Analytical Sciences Inc.; Wellesley, Mass.). The binding data was evaluated using NewLigand software (Genentech), which uses the fitting algorithm of Munson and Robard to determine the binding affinity of the antibody (Munson and Robard 1980).

The target of assay [4] is T4, rat B7-H4 (rat, UniProt Q501W4 29-282).
T4 construct: On stably transfected 293 cells; also called recombinant rat B7-H4
T4 sequence: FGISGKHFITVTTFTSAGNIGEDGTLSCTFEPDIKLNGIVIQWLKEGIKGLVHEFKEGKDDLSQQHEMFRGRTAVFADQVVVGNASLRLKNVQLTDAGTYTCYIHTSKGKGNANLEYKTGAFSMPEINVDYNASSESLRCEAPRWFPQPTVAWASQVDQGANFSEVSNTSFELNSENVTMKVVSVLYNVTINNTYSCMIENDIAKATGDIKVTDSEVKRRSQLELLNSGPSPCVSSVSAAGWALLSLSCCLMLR
The assay is described as above. As for the experimental part:
as §1

Assay [5] has as its target T1, human B7-H4. The assay is described as above. As for the experimental part:
as §1

Assay [6] has as its target T5, cynomolgus monkey B7-H4 (cynomolgus monkey, UniProt Q7Z7D3 29-282 (human entry)).
T5 construct: On stably transfected 293 cells; also called cyno B7-H4; recombinant cynomolgus monkey B7-H4
T5 chain: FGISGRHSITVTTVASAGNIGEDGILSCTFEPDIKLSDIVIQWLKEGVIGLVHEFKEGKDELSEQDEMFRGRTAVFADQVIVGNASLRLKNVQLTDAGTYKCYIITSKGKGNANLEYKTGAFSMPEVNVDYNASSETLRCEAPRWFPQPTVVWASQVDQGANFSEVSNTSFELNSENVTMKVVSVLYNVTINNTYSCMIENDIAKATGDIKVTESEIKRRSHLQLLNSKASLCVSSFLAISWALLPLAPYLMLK
Described as above. How it is done: as §1

Assay [7] addresses T6, soluble B7-H4 (Ig-V; G28-V157)-Fc fusion protein (human, UniProt Q7Z7D3 28-157).
T6 construct: Engineered soluble protein; also called B7-H4-(Ig-V)-hIgG1 Fc fusion protein; soluble B7-H4 IgV-Fc fusion protein; not shown: human IgG1 Fc
T6 sequence: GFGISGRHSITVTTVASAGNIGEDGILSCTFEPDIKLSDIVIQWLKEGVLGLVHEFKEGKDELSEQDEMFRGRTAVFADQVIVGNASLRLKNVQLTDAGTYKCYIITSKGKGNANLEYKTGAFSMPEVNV
The assay can be described thus: FACS competition: soluble B7-H4 (Ig-V)-Fc against dye-labelled 22C10 on 293 cells expressing human B7-H4.

Assay [8] has as its target T1, human B7-H4. The assay can be described thus: Scatchard analysis, 125I-antibody radioligand cell binding on MX-1 tumor cells. How it is done:
as §1

In assay [9] the target is T7, human B7-H4 S114A glycosylation mutant (human, UniProt Q7Z7D3 29-282).
T7 construct: Full-length human B7-H4 membrane construct with S114 changed to alanine to prevent N-linked glycosylation at N112-S114; transiently expressed on 293 cells; also called mutated S114A human B7-H4; recombinant human B7-H4 S114A
T7 sequence: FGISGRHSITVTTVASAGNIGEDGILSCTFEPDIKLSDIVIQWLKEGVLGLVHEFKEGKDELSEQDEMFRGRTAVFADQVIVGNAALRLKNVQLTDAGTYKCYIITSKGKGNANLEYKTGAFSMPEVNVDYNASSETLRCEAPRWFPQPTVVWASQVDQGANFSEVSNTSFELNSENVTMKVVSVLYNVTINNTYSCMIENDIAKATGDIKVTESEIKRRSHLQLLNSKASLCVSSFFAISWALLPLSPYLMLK
The assay can be described thus: FACS on 293 cells transfected with S114A human B7-H4 (glycosylation independence).

Assay [10] has as its target T3, mouse B7-H4. Kind of assay: FACS titration on 293 cells expressing recombinant mouse B7-H4 (panel '293-mouse B7-H4', upper block), geometric mean fluorescence. How it is done:
(§2) The fluorescent signal was acquired with a BD FACS Calibur and EC₅₀ values were determined with the Graph Pad program Prism 4.

Assay [11] addresses T5, cynomolgus monkey B7-H4. The assay can be described thus: FACS titration on 293 cells expressing recombinant cynomolgus B7-H4 (panel '293-cyno B7-H4', upper block), geometric mean fluorescence. How it is done:
as §2

Assay [12] has as its target T1, human B7-H4. The assay can be described thus: FACS titration on MX-1 tumor cells, endogenous human B7-H4 (panel 'MX-1 tumor cell line', upper block), geometric mean fluorescence. As for the experimental part: as §2
Assay [13] addresses T1, human B7-H4. Kind of assay: FACS titration on 293 cells expressing recombinant human B7-H4 (panel '293-human B7-H4', upper block), Dylight-650 goat anti-human IgG, geometric mean fluorescence. How it is done:
as §2

Assay [14] deals with T3, mouse B7-H4. The assay can be described thus: Scatchard analysis, 125I-antibody radioligand cell binding on stably transfected 293 cells. As for the experimental part:
as §1

For assay [15], the target named is T4, rat B7-H4. The assay is described as above. As for the experimental part:
as §1

For assay [16], the target named is T1, human B7-H4. Described as above. As for the experimental part:
as §1

For assay [17], the target named is T5, cynomolgus monkey B7-H4. Described as above. As for the experimental part: as §1
Assay [18] deals with T4, rat B7-H4. Kind of assay: Scatchard on stable cell line expressing recombinant B7-H4 (footnote 1 of the table). As for the experimental part: Competition assay mixtures of 50 μL volume containing a fixed concentration of [I¹²⁵] labeled antibody and decreasing concentrations of serially diluted, unlabeled antibody were placed into 96-well plates. […] Cells were detached from the flask using Sigma Cell Dissociation Solution and were washed with binding buffer, which consisted of Dulbecco's Modified Eagle Medium (DMEM) with 1% bovine serum albumin (BSA), 300 mM human IgG and 0.1% sodium azide. The washed cells were added to the 96 well plates at a density of 100,000 cells in 0.2 mL of binding buffer. The final concentration of the [I¹²⁵] labeled antibody in each well was ˜250 pM. The final concentration of the unlabeled antibody in the competition assay ranged from 1000 nM through ten 2-fold dilution steps to a 0 nM buffer-only assay. Competition assays were carried out in triplicate. Competition assays were incubated for 2 hours at room temperature.

B1: hu1D11.v1.9 varD (antibody)
heavy: not shown
light: DIQMTQSPSSLSASVGDRVTITCKASQGFNKYVAWYQQKPGKAPKLLIYYTSTLQPGVPSRFSGSGSGRDYTLTISSLQPEDFATYYCLQYGDLLYAFGQGTKVEIKRTVAAPSVFIFPPSDEQLKSGTASVVCLLNNFYPREAKVQWKVDNALQSGNSQESVTEQDSKDSTYSLSSTLTLSKADYEKHKVYACEVTHQGLSSPVTKSFNRGEC
notes: IgG1 / kappa; also called h1D11v1.9_VarD; h1D11v1.9varD
Turning to B1, the Kd came out at 7.4 nM in the assay with human B7-H4 [1]; 5 nM with mouse B7-H4 [3]; 2.7 nM in the assay with rat B7-H4 [4]; 2.9 nM with human B7-H4 [5]; 3.7 nM in the assay with cynomolgus monkey B7-H4 [6]. In addition, the “fold binding compared to mock transfected 293 cells” value in [2] was roughly 44 fold.

B2: chimeric antibody ch22C10 (antibody, human IgG1, V domains shown)
VH: QVQLQQPGAELVKPGTSVKLSCKASGYTFTNFWIHWVIQRPGQGLEWIGEIDPSDSYTNYNQKFKGKATLTVDKSSNTAYMQLSSLTSEDSAVYYCSREITTVDYWGQGTTLTVSS
VL: QIVLTQSPTIMSASPGEKVTLTCSATSSISYMHWYQQKPGTSPKGWIYDTSKLAHGVPARFSGSGSGTSYSLTISSMEAEDAATYYCHQRRSYPFTFGSGTKLEIK
notes: also called ch2210; parental 22C10 antibody
Turning to B2, the binding result in assay [7] is “no binding”. Moreover, the Kd with human B7-H4 [8] stood at 4.9 nM; in the assay with mouse B7-H4 [14], 18.3 nM; with rat B7-H4 [15], 5.7 nM; in the assay with human B7-H4 [16] it was 6.6 nM; with cynomolgus monkey B7-H4 [17], 4.6 nM. The “fold binding over the isotype control” value in [9] was determined as 100 fold. Further, the half-maximal effective concentration (EC50) with mouse B7-H4 [10] was determined as 0.66 µg/mL; in the assay with cynomolgus monkey B7-H4 [11], 0.41 µg/mL; with human B7-H4 [12] it was 0.35 µg/mL; with human B7-H4 [13] it was 1.2 µg/mL.

B3: chimeric antibody ch32D6 (antibody, human IgG1, V domains shown)
VH: EVQLQQSGPDLVKPGASVKISCKASGYSFTGYYIHWMKQSHGKSLEWIGRVNPNNGDPIYNQKFRGKAILTVDQSSNTAYMELRSLTSEASAVYYCARVLFYYGSPFAYWGQGTLVTVSA
VL: DIVMTQSPSSLIVTAGEKVTMSCRSSQSLFDSGSQRNYLTWFHQKPGRPPKLLIYWASTRESGVPDRFTGSGSGTDFTLTISSVQTEDLAVYFCQNDYSFPFTFGSGTKLEEK
notes: also called antibody 32D6
B3: in [9], the “fold binding over the isotype control” value was 100 fold. In addition, the binding result with rat B7-H4 [18] is reported as “no binding”. The Kd is 4.8 nM with human B7-H4 [16] and 3.1 nM with cynomolgus monkey B7-H4 [17].
